Laboratory results: article PMC8497518, “ssDNA recombineering boosts in vivo evolution of nanobodies displayed on bacterial surfaces” (Communications Biology, 2021)
Where a chain is given by its changes, count along the chain named. Numbers in names are those of the source.

B1: Nb TD4 displayed on E. coli as a fusion to the outer membrane anchoring domain of intimin (VHH)
VHH: QVQLVDAGGGSVQAGGSLTLSCVASGAAYSTNLLGWFRQAPGKEREGVASIYRGNSATNYADSVKGRFTISQDKTKYTIYLQMNSLKPEDSAMYYCAHGTAPYWHTPIPTLSEDKYFYWGQGTQVTVSS
notes: VHH TD4; multivalent on the bacterial surface; also called parental Nb; non-evolved TD4; not shown: intimin outer membrane anchoring domain, N-terminal, kept
B2: Nb TD4^D116G displayed on E. coli as a fusion to the outer membrane anchoring domain of intimin (VHH)
VHH: B1 VHH with D114G
notes: as the VHH of m3 with D116G (CDR3); Evolved from TD4 by DIvERGE mutagenesis and MACS selection; also called Nb D116G; not shown: intimin outer membrane anchoring domain, N-terminal, kept
B3: Nb TD4^H107Y displayed on E. coli as a fusion to the outer membrane anchoring domain of intimin (VHH)
VHH: B1 VHH with H105Y
notes: as the VHH of m3 with H107Y (CDR3); Evolved from TD4 by DIvERGE mutagenesis and MACS selection; also called Nb H107Y; not shown: intimin outer membrane anchoring domain, N-terminal, kept
B4: Nb TD4^D116G, secreted His6-tagged VHH-HlyA fusion (monovalent, purified) (VHH)
VHH: B1 VHH with D114G
notes: as the VHH of m7 with D116G; also called Nb D116G
B5: Nb TD4^H107Y, secreted His6-tagged VHH-HlyA fusion (monovalent, purified) (VHH)
VHH: B1 VHH with H105Y
notes: as the VHH of m7 with H107Y; also called Nb H107Y
B6: Nb TD4^T108R, secreted His6-tagged VHH-HlyA fusion (monovalent, purified) (VHH)
VHH: B1 VHH with T106R
notes: as the VHH of m7 with T108R; also called Nb T108R
B7: Nb TD4^T108R displayed on E. coli as a fusion to the outer membrane anchoring domain of intimin (VHH)
VHH: B1 VHH with T106R
notes: as the VHH of m3 with T108R (CDR3); Evolved from TD4 by DIvERGE mutagenesis and MACS selection; also called Nb T108R; not shown: intimin outer membrane anchoring domain, N-terminal, kept
B8: Nb TD4, secreted His6-tagged VHH-HlyA fusion (monovalent, purified) (VHH)
VHH: B1 VHH
notes: VHH TD4, as the VHH of m3; No cleavage of the HlyA part or the His tag is described; the fusion was detected by anti-E-tag in ELISA; also called parental TD4; non-evolved TD4; source: E. coli HB2151 with pVDL9.3 (HlyBD) and a pEHLYA derivative, secreted, purified from culture medium (Talon resin)

Legend:
[1] = target: TirM^EPEC, extracellular domain of the translocated intimin receptor (Tir) of enteropathogenic E. coli (enteropathogenic E. coli (EPEC)); assay: SEC; purified TirM^EPEC in solution, size exclusion chromatography
[2] = target: T1, TirM^EHEC, extracellular domain of the translocated intimin receptor (Tir) of enterohaemorrhagic E. coli (Escherichia coli EHEC; strain not …, UniProt Q7DB77, biotin (NHS-biotin, biotin:protein 20:1) for flow cytometry and MACS); assay: flow cytometry on cells; E. coli displaying the intimin-Nb fusion (multivalent) incubated 90 min at 4 °C in PBS with biotinylated antigen (0-250 nM TirM^EPEC or 0-50 nM TirM^EHEC), stained with streptavidin-allophycocyanin; median fluorescence fitted to one-site specific binding; apparent KD; conditions: one partner purified
T1 construct: Translocated intimin receptor Tir of enterohaemorrhagic E. coli (EHEC), extracellular TirM domain; also called EHEC TirM; former antigen

[3] = target: T2, TirM^EPEC, extracellular domain of the translocated intimin receptor (Tir) of enteropathogenic E. coli (Escherichia coli EPEC; strain not …, UniProt B7UM99, biotin (NHS-biotin, biotin:protein 20:1) for flow cytometry and MACS); assay: as above; conditions: one partner purified
T2 construct: Translocated intimin receptor Tir of enteropathogenic E. coli (EPEC), extracellular TirM domain; also called EPEC TirM; new antigen

[4] = target: T1, TirM^EHEC, extracellular domain of the …; assay: ELISA; Maxisorp plates coated with His-tagged TirM at 10 ug/mL in PBS; purified monovalent Nb in 3% skimmed milk in PBS, 0-100 nM (TD4) or 0-400 nM (mutants), 90 min at 23 °C; detected with anti-E-tag; one-site specific binding fit; apparent KD; conditions: both partners purified
Target sequence in this assay (Q7DB77 252-362): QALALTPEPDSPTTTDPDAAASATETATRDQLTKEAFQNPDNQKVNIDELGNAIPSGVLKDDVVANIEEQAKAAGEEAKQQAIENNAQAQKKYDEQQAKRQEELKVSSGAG

[5] = target: T2, TirM^EPEC, extracellular domain of the …; assay: as above; conditions: both partners purified
Target sequence in this assay (B7UM99 255-362): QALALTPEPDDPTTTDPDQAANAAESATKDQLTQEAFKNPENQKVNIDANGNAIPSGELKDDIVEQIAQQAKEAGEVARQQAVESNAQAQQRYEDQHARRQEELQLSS

[6] = target: T2, TirM^EPEC, extracellular domain of the …; assay: as above; conditions: both partners purified; remark: listed apart in the source
Target sequence in this assay (B7UM99 255-362): as above

Molecule | Kd [2] | Kd [3] | Kd [4] | Kd [5] | other results
TirM^EPEC, extracellular domain of the translocated intimin receptor (Tir) of enteropathogenic E. coli (domain or fragment) |  |  |  |  | stoichiometry N [1]: 2
B1 | 0.41 nM |  |  |  | 
B2 | 0.58 nM | 17.9 nM |  |  | 
B3 | 0.57 nM | 33.9 nM |  |  | 
B4 |  |  | 137 nM | 397 nM | 
B5 |  |  | 47.7 nM | 20.1 nM | Kd [6]: 20.8 ± 2.31 nM
B6 |  |  | 4.61 nM | 176 nM | 
B7 | 0.36 nM | 27.6 nM |  |  | 
B8 |  |  | 5.55 nM |  | 
